Data: patent US20240287172A1 (SCIRHOM, published 2024)
Numbering of substitutions follows the chain as printed.

B1: antibody 5 (antibody, V domains shown)
VH: QVTLKESGPGILQPSQTLSLTCSFSGFSLSTFGMGVGWIRQPSGKGLEWLAHIWWDDEKYYNSALKSRLTISKATSKNQAFLKIANVDTADTATYYCARISNYGSNYWYFNVWGTGTTVTVSS
VL: QVVLTQSPALMSASPGEKVTMTCSAGSSVSCMYWYQQKPGSSPRVLIYDTSNLASGVPARFTGSGSGTSYSLTISRMEAEDAASYYCQQWNSYPLTFGAGTKLELK
notes: mouse IgG, kappa light chain; also called clone #5; purified antibody 5
B2: antibody 22 (antibody, V domains shown)
VH: B1 VH with A80V
VL: B1 VL with C31Y, S84T
notes: mouse IgG, kappa light chain; also called clone #22; purified antibody 22
B3: antibody 42 (antibody, V domains shown)
VH: B1 VH with F24L, M34R, S63P, A74D, A80V, K83R, S101Q, N111D
VL: LIVLTQSPAIMSASPGEKVTMTCGATSRISYMFWYQQKPGSSPRVLIYDTSNLASGVPVRFSGSGSGTSYSLTISRVEAEDVATYYCQQWNSYPLTFGAGTKLELK
notes: mouse IgG, kappa light chain; also called clone #42; purified antibody 42
B4: antibody 3 (antibody, V domains shown)
VH: QVTLKESGPGILQPSQTLSLTCSFSGFSLTTFAMGIGWVRQPSGKGLEWLAHIWWDGEKYNNPVLKSRLTISKDTSKNQVFLRIANVDTPDTATYYCARISSIYYIIDNWGQGTSVTVSS
VL: DIVLTQSPATLSVTPGHSVSLSCRASQSISNNLHWYQKKSHESPRLLIKYVSQSISGIPSRFSGSGSGTDFTLSINSVETEDFGMYFCQQSYNWPLTFGAGTKLELK
notes: mouse IgG, kappa light chain; also called clone #3; purified antibody 3
B5: antibody 34 (antibody, V domains shown)
VH: QVTLKESGPGILQPSQTLSLTCSFSGFSLSTFSLGVGWIRQSSGKGLEWLAHIWWDDEKYYNPALKSRLTISKDTSKNQVFLKIANVDAADTATYYCARAYYSKSYYALDYWGQGTSVTVSS
VL: DIQMTQSPSSLSASLGERVSLTCRASQEISGYLSWLQQKPDGTIKRLIYAASTLDSGVPKRFSGSRSGSDYSLAISSLESEDFADYYCLQYANFPFTFGSGTKLEIK
notes: mouse IgG, kappa light chain; also called clone #34; purified antibody 34
B6: antibody 43 (antibody, V domains shown)
VH: B1 VH with T3A, P42S, H52N, E58D, S63P, A74D, T75A, S101G, N111D
VL: B3 VL with L1Q, K18R, G24S, T26N, F33Y, V45L, V77M, V82A, Y86N, N91S
notes: mouse IgG, kappa light chain; also called clone #43; purified antibody 43
B7: antibody 44 (antibody, V domains shown)
VH: B1 VH with G44E, E58D, S63P, A74D, A80I, A85T, D91E, A98S, S101G, N111D
VL: QIVLTQSPAVMSASPGEKVTMTCTASSSVYYMYWYQQTPGSSPRLLIYDTSNLASGVPVRFSGSGSGTSYSLTISRMEAEDAATYYCQQWNTYPLTFGAGTKLELK
notes: mouse IgG, kappa light chain; also called clone #44; purified antibody 44
B8: antibody 46 (antibody, V domains shown)
VH: QVTLKESGPGILQPSQTLSLTCSFSGFSLSTFGMGVGWIRQPSGKGLEWLAHIWWDDDNYYNQALKSRLTISKDNTKNQVFLNIANVDTADTATYYCARIRSYDYDVRYAMDYWGQGTSVTVSS
VL: DIKMTQSPSSMYASLRERVTITCKASQDINSYLSWFQQKPGKSPKTLIYRANRLVDGVPSRFSGSGSGQDYSLTISSLEYEDLGIYYCQQYYEFPLTFGAGTRLELK
notes: mouse IgG, kappa light chain; also called clone #46
B9: antibody 57 (antibody, V domains shown)
VH: B1 VH with E58D, S63P, A74D, A80I, T92S, Y95F, S101E, N111D
VL: B7 VL with V10I, T24S, Y30S, T38K, L45V, I74V, T92S
notes: mouse IgG, kappa light chain; also called clone #57
B10: antibody 49 (antibody, V domains shown)
VH: QVTLKESGPGILQPSQTLSLTCSFSGFSLSTFGMGVGWIRQPSGKGLEWLAHIWWDDDKYYNPALQSRLTVSKDTAKNQVFLKIANVDTADTAIYYCARVGNYGSNYWYFAVWGTGTTVTVSS
VL: B7 VL with V10I, T24S, Y30S, T38K, T92S
notes: mouse IgG, kappa light chain; also called clone #49
B11: antibody 56 (antibody, V domains shown)
VH: B1 VH with A51T, H52N, E58D, A64V, A74D, A80V, S101A, N102A, N111D
VL: B7 VL with V10I, T24S, Y30S, T38K, L45V, A54S, N91S, T92S
notes: mouse IgG, kappa light chain; also called clone #56
B12: antibody 54 (antibody, V domains shown)
VH: QVTLKESGPGILQPSQTLSLTCSFSGFSLSTFGLGVGWIRQPSGKGLECLAHIWWDDDKYSNPALKSRLTISKDTSKNQVFLKIANVDSADTATYFCARILNYGSNYWYFDVWGTGTTVTVSS
VL: B7 VL with V10L, T24S, V29I, Y30S, T38K, Y70F, I74V, T92S
notes: mouse IgG, kappa light chain; also called clone #54
B13: antibody 48 (antibody, V domains shown)
VH: QVQLQQSGTELVRPGTSVKVSCKASGYAFTNYLIEWVKQRPGQGLEWIGVINPGSGFTKYNEKFKGKATLTADKSSSTVYMHLSSLTSEDSAVYFCARGLYRAMDYWGQGTSVTVSS
VL: DIQMTQSPASQSASLGESVTITCLASQTIATWLAWYQQKPGKSPQLLIYGATTLADGVPSRFSGGGSGTKFSFKISSLQAEDFVSYYCQQLYSTPYTFGGGTKLEIK
notes: mouse IgG, kappa light chain; also called clone #48; purified antibody 48
B14: antibody 50 (antibody, V domains shown)
VH: B13 VH with T9A, T16A, T30S, V79A, H82Q
VL: B13 VL with A30G, G50A, T52A, T53S, S85N, L91I
notes: mouse IgG, kappa light chain; also called clone #50; purified antibody 50
B15: antibody 47 (antibody, V domains shown)
VH: B13 VH with T9A, K59N, T69I, T71N, V79A, H82Q, S84I, G99D, Y101K, Y106H
VL: B13 VL with A30G, Y49H, G50A, T53S, G65S, L91I, T94S
notes: mouse IgG, kappa light chain; also called clone #47
B16: antibody 51 (antibody, V domains shown)
VH: QVQLQQSGAELVKPGASVKISCKASGYTFSNYWMNWVKQRPGKGLEWIGQIYPGDGDTKYNGKFKNKATLTADKSSSTAYMQFSSLTSEDSAVYFCARGDLVFVYWGLGTLVTVSA
VL: DVQITQSPSYLAVSPGETITINCRASKNIRKYLAWYQEKPGKTNKLLIYSGSTSQSGVPSRFSGSGSGTDFTLTISSLEPEDFAMYYCQQHNEYPYTFGGGTKLEIK
notes: mouse IgG, kappa light chain; also called clone #51

Target: T1, dog iRhom2 full length wild type, T7-tagged (dog, UniProt Q00M95 1-827)
T1 construct: whole, on cells; on MEF-DKO cells; also called Dog-iR2-FL-WT-T7
T1 sequence: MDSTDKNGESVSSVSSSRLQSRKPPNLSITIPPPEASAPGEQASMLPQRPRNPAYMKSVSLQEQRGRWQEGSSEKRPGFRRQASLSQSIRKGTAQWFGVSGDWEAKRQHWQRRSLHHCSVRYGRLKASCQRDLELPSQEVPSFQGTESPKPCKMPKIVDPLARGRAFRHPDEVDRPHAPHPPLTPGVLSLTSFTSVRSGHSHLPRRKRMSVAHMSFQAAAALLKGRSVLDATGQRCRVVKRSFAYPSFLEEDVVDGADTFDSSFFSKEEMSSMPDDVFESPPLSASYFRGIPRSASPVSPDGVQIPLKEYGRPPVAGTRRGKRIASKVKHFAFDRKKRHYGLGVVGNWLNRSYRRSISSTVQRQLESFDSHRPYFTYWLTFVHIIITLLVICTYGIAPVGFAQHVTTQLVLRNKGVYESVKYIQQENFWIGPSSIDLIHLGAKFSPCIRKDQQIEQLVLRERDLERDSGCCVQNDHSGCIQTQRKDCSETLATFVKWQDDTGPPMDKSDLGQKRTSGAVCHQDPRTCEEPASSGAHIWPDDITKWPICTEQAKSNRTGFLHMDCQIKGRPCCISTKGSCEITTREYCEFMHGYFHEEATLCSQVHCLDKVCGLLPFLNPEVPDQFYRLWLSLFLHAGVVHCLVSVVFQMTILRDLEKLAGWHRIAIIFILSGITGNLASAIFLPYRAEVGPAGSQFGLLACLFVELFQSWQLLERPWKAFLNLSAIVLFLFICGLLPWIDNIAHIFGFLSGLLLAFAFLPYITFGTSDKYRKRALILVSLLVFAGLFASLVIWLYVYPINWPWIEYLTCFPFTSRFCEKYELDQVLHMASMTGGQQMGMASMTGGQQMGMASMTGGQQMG
Test: FACS, MEF-DKO cells; via representative antibody 16
Experimental: In brief, immortalized MEF-DKO-EV control cells, MEF-DKO-rhesus-iR2-FL-WT-T7 cells, MEF-DKO-cyno-iR2-FL-WT-T7 cells, MEF-DKO-dog-iR2-FL-WT-T7 cells and MEF-DKO-rabbit-iR2-FL-WT-T7 cells, as well as their respective iRhom1 counterparts, were harvested with 10 mM EDTA in PBS, washed and resuspended in FACS buffer (PBS, 3% FBS, 0.05% sodium azide), and seeded in Nunc U-bottom 96-well plates (Thermo Fisher Scientific, USA) at approximately 3×10⁵ cells per well. To pellet cells and remove supernatants, the plates were centrifuged at 1,500 rpm and 4° C. for 3 minutes. For primary staining, cells were resuspended in 100 μl per well of either FACS buffer alone (controls), mouse monoclonal anti-T7 IgG (Merck Millipore, USA) at 3 μg/ml FACS buffer or the antibodies of the invention also at 3 μg/ml FACS buffer and incubated on ice for 1 hour.
Afterwards, plates were centrifuged at 1,500 rpm and 4° C. for 3 minutes and washed twice with 200 μl per well of FACS buffer. For secondary staining, cells were spun down and resuspended in 100 μl per well of PE-conjugated goat anti-mouse IgG F(ab′)2 detection fragment (Dianova, Germany) diluted 1:100 in FACS buffer. Protected from light, the cell suspensions were incubated on ice for 1 hour. Plates were then centrifuged at 1,500 rpm and 4° C. for 3 minutes and washed three times with 200 μl per well of FACS buffer. Finally, cells were resuspended in 150 μl per well of FACS buffer and analyzed using a BD Accuri™ C6 Plus flow cytometer (Becton Dickinson, Germany).

Row | Binder | binding result
1 | B1 | binds
2 | B2 | binds
3 | B3 | binds
4 | B4 | binds
5 | B5 | binds
6 | B6 | binds
7 | B7 | binds
8 | B8 | binds
9 | B9 | binds
10 | B10 | binds
11 | B11 | binds
12 | B12 | binds
13 | B13 | binds
14 | B14 | binds
15 | B15 | binds
16 | B16 | binds
